From patent publication US7829301B2, “Screening assays for binding antagonists of the AMD-associated variant of factor H (H384)” (The University of Manchester, priority 2006, dated 2010)
Changes are numbered by the printed parent chain.

T1: CRP (Homo sapiens, UniProt P02741)
T1 construct: purchased Calbiochem
T1 sequence (P02741 19-224): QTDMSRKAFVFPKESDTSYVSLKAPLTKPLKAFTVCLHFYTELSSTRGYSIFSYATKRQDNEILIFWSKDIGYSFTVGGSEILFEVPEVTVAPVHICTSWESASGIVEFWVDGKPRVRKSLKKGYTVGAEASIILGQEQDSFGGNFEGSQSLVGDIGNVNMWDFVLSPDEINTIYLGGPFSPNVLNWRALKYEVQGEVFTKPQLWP

B1: FHCCP6-8(H384): recombinant protein of Factor H CCPs 6-8, H384 allotype, with N-terminal non-authentic glycine (SEQ ID NO: 1) (protein, listed as Homo sapiens)
chain: MGTLKPCDYPDIKHGGLYHENMRRPYFPVAVGKYYSYYCDEHFETPSGSYWDHIHCTQDGWSPAVPCLRKCYFPYLENGYNQNHGRKFVQGKSIDVACHPGYALPKAQTTVTCMENGWSPTPRCIRVKTCSKSSIDIENGFISESQYTYALKEKAKYQCKLGYVTADGETSGSITCGKDGWSAQPTCI
modifications: VARIANT (1)...(188) Protein sequence of the FHCCP6-8 (H384) construct
B2: FHCCP6-8(Y384): recombinant Factor H CCPs 6-8, Y384 variant obtained by site-directed mutagenesis (SEQ ID NO: 3) (protein, listed as Homo sapiens)
chain: B1 chain with H84Y
modifications: VARIANT (1)...(188) FHCCP6-8 (Y384 allotype of mature Factor H)

Columns and labels:
[1] = target: T1, CRP; assay: Protein/protein binding assay with coated CRP
Procedure: FMOD was isolated from bovine articular cartilage (Heinghrd et al., (1986) J. Biol. Chem. 261, 13866-13872) and recombinant CRP was obtained from Calbiochem. Deglycosylated FMOD was prepared by treatment with N-glycosiadase F (Roche Applied Science) as previously described (Sjöberg et al. (2005) J. Biol. Chem. 280, 32301-32308).
CRP or FMOD was coated overnight at 4° C. onto microtiter plates (Maxisorp, Nunc) at a concentration of 10 μg/ml in 75 mM sodium carbonate buffer, pH 9.6. Wells treated only with coating buffer or 1% (w/v) BSA (Sigma) in coating buffer (for the assays involving FMOD) were used as negative controls. Between each step the wells were washed extensively with 50 mM Tris-HCl, 150 mM NaCl, 0.1% (v/v) Tween 20, pH 7.5. All wells were blocked with 1% (w/v) BSA (Sigma) in phosphate buffered saline (Invitrogen) for 1 hour at 37° C. […] The amount of bound protein was assessed using a goat polyclonal anti-FH antibody (Quidel, Cat # A312) followed by HRP-labeled anti-goat secondary antibodies (Dako) and the OPD development kit (Dako). Detection of biotinylated protein was performed using a StreptABComplex/HRP-kit from Dako, and in both cases the absorbance at 490 nm was measured to quantify protein binding.

[2] = Heparin affinity chromatography on HiTrap Heparin column; assay type: binding; details: pH 7.3; linear salt gradient 130 mM to 1 M NaCl
Procedure: The heparin-binding properties of H384 and Y384 variants of FHCCP6-8 were compared to full-length human factor H by affinity chromatography on a HiTrap Heparin column (Amersham Biosciences) or a ‘home-made’ column in which 20 mg 4IS was coupled to 1.5-ml CNBr-activated Sepharose (Sigma) in 0.1 M NaHCO3, 0.5 M NaCl, pH 8.3 using the manufacturer's protocol. The 1-ml HiTrap column and ˜1-ml 4IS-column were equilibrated in 20 mM HEPES, 130 mM NaCl, 1 mM EDTA, pH 7.3. Protein (200 μg recombinant proteins; 100 μg full-length factor H) was loaded onto the columns (in 1 ml equilibration buffer) and any unbound material was removed with 5 column volumes of the same buffer and collected in 1-ml fractions. Protein was eluted from the columns using a linear salt gradient of 130 mM to 1 M NaCl over 20 min by mixing 20 mM HEPES, 1 M NaCl, 1 mM EDTA, pH 7.3 with the equilibration buffer at a flow rate of 1 ml/min.
This approach was also used to determine the relative heparin-binding activities of K370A, R386A and K387A mutants, where 200 μg of protein was loaded individually onto the HiTrap column.

[3] = system: Linearized pcDNA3-vector; assay: Protein/DNA binding assay (agarose gel migration); details: 5 μg protein, 30 ng DNA, 30 minutes at 37° C.
Procedure: Plasmid pcDNA3 DNA (Invitrogen) was linearized using EcoR1 (Fermentas) in a buffer accompanying the enzyme.
Linearized pcDNA3-vector (30 ng) was incubated with 5 μg of FHCCP(H384), FHCCP6-8(Y384) or full length FH (positive control) in the binding buffer (as described above) in a total volume of 20 μl for 30 minutes at 37° C. The negative control contained no protein. DNA loading buffer (0.25% (w/v) bromophenol blue, 0.25% (w/v) xylene cyanol, 30% (v/v) glycerol in deionized water) was added (1 μl) and the samples were run on an agarose gel (0.8% (w/v), Cambrex) containing ethidium bromide (Sigma) and visualized by UV. Changes in DNA migration served as a means of evaluating the presence of DNA-protein complexes.

Row | Molecule | binding to CRP relative to the other variant ([1]; biotinylated proteins) | NaCl concentration at elution from HiTrap heparin affinity column [2] | DNA-protein complex formation (DNA migration in agarose gel) [3] | binding to CRP relative to the other variant ([1]; detection with polyclonal anti-FH antibody, p<0.03)
1 | B1 | lower CRP binding | 340 mM NaCl | retained DNA in its protein-complex form more efficiently | 
2 | B2 |  | 390 mM NaCl | migrated mainly in the non-complexed form | bound significantly better
